This note sets out measurements from US20240109954A1 (GENERAL HOSPITAL, published 2024).

Assay [1] concerns the target T1, mouse FcγRIIb (mouse, UniProt P08101 30-210).
T1 construct: also called mFcγRIIb; mFcγR2b
T1 sequence: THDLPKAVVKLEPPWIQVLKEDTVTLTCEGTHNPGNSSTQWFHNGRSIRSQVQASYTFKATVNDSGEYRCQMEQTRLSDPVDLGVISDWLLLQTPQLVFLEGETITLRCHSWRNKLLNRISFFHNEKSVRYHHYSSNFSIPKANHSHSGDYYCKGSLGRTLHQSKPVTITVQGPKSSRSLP
Briefly: BLI, mAb on anti-human Fab-CH1 sensor, FcγR in solution.

In assay [2] the target is T2, mouse FcγRIII (mouse, UniProt P08508 31-215).
T2 construct: also called mFcγRIII; mFcγR3
T2 sequence: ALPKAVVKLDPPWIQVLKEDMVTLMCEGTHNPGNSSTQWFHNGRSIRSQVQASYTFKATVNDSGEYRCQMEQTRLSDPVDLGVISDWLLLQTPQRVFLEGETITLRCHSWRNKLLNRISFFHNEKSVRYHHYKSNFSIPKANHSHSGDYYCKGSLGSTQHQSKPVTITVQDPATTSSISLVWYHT
Described as above.

The target of assay [3] is T3, mouse FcγRIV (mouse, UniProt A0A0B4J1G0 21-203).
T3 construct: also called mFcγRIV
T3 sequence: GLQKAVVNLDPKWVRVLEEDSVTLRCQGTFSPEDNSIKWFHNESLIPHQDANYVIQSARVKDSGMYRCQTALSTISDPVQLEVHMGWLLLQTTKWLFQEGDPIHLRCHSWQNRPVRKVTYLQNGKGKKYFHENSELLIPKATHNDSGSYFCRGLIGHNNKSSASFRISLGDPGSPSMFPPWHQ
Described as above.

Assay [4] addresses T4, mouse FcγRI (mouse, UniProt P26151 25-297).
T4 construct: also called mFcγRI
T4 sequence: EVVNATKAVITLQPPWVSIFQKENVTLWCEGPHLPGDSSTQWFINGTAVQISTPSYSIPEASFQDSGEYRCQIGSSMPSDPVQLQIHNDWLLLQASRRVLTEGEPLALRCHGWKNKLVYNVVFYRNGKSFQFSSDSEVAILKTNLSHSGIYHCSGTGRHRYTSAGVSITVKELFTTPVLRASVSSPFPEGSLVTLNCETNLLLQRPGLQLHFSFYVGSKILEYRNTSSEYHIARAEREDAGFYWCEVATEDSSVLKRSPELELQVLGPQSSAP
The assay is described as above.

Assay [5] concerns the target T5, human FcγR3B (human, UniProt O75015 17-200).
T5 construct: also called huFcγR3B
Briefly: SPR, mAb printed on chip, FcγR injected.

In assay [6] the target is T6, human FcγR2A (R131) (human, UniProt P12318 34-217).
T6 construct: also called huFcγR2A
T6 sequence: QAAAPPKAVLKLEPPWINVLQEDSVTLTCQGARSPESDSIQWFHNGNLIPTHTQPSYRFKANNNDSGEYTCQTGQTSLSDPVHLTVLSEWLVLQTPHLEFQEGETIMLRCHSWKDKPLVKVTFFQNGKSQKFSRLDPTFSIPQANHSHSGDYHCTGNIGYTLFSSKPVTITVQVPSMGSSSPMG
Kind of assay: SPR, mAb printed on chip, FcγR injected.

The target in assay [7] is T7, human FcγR3A (F158) (human, UniProt P08637 17-208).
T7 construct: also called huFcγR3A
Briefly: SPR, mAb printed on chip, FcγR injected.

Assay [8] deals with T8, human FcγR2B (human, UniProt P31994 43-217).
T8 construct: also called huFcγR2B
T8 sequence: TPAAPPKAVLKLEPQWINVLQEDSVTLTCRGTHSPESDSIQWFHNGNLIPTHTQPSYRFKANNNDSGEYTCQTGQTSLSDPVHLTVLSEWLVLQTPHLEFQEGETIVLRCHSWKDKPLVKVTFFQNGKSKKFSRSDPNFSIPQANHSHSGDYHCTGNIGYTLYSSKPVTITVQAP
Briefly: SPR, mAb printed on chip, FcγR injected.

Assay [9] deals with T3, mouse FcγRIV. Kind of assay: SPR (IBIS MX96): mAb printed on the chip, recombinant FcγR injected at 10 to 0.005 µM; axis 'KD, M^-1', that is the reciprocal of KD.
The target in assay [10] is T1, mouse FcγRIIb. Described as above.
Assay [11] has as its target T5, human FcγR3B. The description is as above.

T5 sequence (O75015 17-200): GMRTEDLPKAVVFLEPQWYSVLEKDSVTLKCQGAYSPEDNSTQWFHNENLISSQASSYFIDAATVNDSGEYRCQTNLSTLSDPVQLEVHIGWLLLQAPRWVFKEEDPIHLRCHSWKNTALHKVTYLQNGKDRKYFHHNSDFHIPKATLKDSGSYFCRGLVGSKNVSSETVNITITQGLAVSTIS
T7 sequence (P08637 17-208): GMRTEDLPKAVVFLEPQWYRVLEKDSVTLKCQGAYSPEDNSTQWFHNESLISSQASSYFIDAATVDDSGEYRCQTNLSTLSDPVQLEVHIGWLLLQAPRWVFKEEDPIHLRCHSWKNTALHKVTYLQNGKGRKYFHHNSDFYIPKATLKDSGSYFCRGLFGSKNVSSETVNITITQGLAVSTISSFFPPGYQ

B1: VIC16-IgG1 (antibody)
heavy: not shown
light: DIVITQDTASLAVSRGQRATISCRASESVEYYGTTLMQWYQQRPGQPPKLLIYGASNVESGVPARFSGSGSGTDFSLNIHPVEEDDIAMYFCQQSRKVPYTFGGGTKLEIKRTVAAPSVFIFPPSDEQLKSGTASVVCLLNNFYPREAKVQWKVDNALQSGNSQESVTEQDSKDSTYSLSSTLTLSKADYEKHKVYACEVTHQGLSSPVTKSFNRGEC
notes: also called VIC16 human IgG1; wild type IgG1
Consider B1, for which the Kd was 14.9 µM in assay [1]; 2.83 µM in [2]; 0.24 µM in [3]; 0.08 µM in assay [4]; 25 µM in [5]; 30 µM in assay [6]. In addition, the Kd in assay [7] was 6.1 µM; in [8], 23 µM. Moreover, the “fold-change relative to IgG1” value in assay [1], in assay [2], in [3], in assay [4], in assay [5] and in assay [6] was 1 fold in each case. In addition, the “fold-change relative to IgG1” value in [7] and in [8] was 1 fold throughout.

B2: VIC16-SELF (antibody)
heavy: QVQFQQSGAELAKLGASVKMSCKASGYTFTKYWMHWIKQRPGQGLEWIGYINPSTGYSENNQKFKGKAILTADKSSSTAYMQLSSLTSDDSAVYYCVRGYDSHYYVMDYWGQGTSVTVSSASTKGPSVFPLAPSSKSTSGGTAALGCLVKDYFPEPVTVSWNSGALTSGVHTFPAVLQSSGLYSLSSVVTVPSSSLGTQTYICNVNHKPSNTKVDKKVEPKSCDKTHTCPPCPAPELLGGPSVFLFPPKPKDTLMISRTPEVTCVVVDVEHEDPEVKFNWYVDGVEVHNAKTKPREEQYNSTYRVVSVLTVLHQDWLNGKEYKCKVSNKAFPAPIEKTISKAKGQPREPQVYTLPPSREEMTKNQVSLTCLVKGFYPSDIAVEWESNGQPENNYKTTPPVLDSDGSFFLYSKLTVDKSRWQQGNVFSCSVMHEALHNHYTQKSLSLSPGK
light: DIVITQDTASLAVSRGQRATISCRASESVEYYGTTLMQWYQQRPGQPPKLLIYGASNVESGVPARFSGSGSGTDFSLNIHPVEEDDIAMYFCQQSRKVPYTFGGGTKLEIKRTVAAPSVFIFPPSDEQLKSGTASVVCLLNNFYPREAKVQWKVDNALQSGNSQESVTEQDSKDSTYSLSSTLTLSKADYEKHKVYACEVTHQGLSSPVTKSFNRGEC
Turning to B2, the binding result in assay [9] is on record as “binds”.

B3: VIC16-E333A (antibody)
heavy: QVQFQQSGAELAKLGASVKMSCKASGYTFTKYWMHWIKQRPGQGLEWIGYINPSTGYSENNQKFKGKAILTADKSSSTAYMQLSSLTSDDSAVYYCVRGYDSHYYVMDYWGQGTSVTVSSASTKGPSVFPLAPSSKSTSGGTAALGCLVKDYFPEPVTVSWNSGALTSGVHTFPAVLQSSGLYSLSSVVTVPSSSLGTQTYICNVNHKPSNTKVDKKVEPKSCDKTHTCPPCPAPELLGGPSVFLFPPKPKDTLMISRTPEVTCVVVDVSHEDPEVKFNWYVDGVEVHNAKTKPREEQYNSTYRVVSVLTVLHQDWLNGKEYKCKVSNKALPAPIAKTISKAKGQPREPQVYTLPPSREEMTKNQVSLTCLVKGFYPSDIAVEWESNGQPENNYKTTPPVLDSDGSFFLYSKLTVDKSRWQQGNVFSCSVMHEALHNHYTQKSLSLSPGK
light: DIVITQDTASLAVSRGQRATISCRASESVEYYGTTLMQWYQQRPGQPPKLLIYGASNVESGVPARFSGSGSGTDFSLNIHPVEEDDIAMYFCQQSRKVPYTFGGGTKLEIKRTVAAPSVFIFPPSDEQLKSGTASVVCLLNNFYPREAKVQWKVDNALQSGNSQESVTEQDSKDSTYSLSSTLTLSKADYEKHKVYACEVTHQGLSSPVTKSFNRGEC
As to B3, the binding result in assay [10] is “binds”.

B4: VIC16-SAEAKA (antibody)
heavy: QVQFQQSGAELAKLGASVKMSCKASGYTFTKYWMHWIKQRPGQGLEWIGYINPSTGYSENNQKFKGKAILTADKSSSTAYMQLSSLTSDDSAVYYCVRGYDSHYYVMDYWGQGTSVTVSSASTKGPSVFPLAPSSKSTSGGTAALGCLVKDYFPEPVTVSWNSGALTSGVHTFPAVLQSSGLYSLSSVVTVPSSSLGTQTYICNVNHKPSNTKVDKKVEPKSCDKTHTCPPCPAPELLGGPSVFLFPPKPKDTLMISRTPEVTCVVVDVSHEDPEVKFNWYVDGVEVHNAKTKPREEQYNATYRVVSVLTVLHQDWLNGKEYKCKVSNKALPAPIAATISKAKGQPREPQVYTLPPSREEMTKNQVSLTCLVKGFYPSDIAVEWESNGQPENNYKTTPPVLDSDGSFFLYSKLTVDKSRWQQGNVFSCSVMHEALHNHYTQKSLSLSPGK
light: DIVITQDTASLAVSRGQRATISCRASESVEYYGTTLMQWYQQRPGQPPKLLIYGASNVESGVPARFSGSGSGTDFSLNIHPVEEDDIAMYFCQQSRKVPYTFGGGTKLEIKRTVAAPSVFIFPPSDEQLKSGTASVVCLLNNFYPREAKVQWKVDNALQSGNSQESVTEQDSKDSTYSLSSTLTLSKADYEKHKVYACEVTHQGLSSPVTKSFNRGEC
With B4, the binding result in assay [10] and in assay [9] was “binds” each time.

B5: VIC16-DVNH (antibody)
heavy: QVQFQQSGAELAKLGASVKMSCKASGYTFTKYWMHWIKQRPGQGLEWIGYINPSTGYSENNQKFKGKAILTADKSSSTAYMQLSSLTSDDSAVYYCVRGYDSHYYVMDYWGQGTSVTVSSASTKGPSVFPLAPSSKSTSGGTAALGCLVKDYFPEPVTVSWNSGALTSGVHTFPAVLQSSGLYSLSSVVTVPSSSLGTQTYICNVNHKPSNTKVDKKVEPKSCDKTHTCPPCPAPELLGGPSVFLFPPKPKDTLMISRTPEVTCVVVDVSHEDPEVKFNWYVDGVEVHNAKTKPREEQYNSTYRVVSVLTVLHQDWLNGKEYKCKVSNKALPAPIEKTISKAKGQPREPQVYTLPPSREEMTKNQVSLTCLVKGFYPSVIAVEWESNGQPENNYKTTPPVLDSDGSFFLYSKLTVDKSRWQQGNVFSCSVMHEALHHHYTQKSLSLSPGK
light: DIVITQDTASLAVSRGQRATISCRASESVEYYGTTLMQWYQQRPGQPPKLLIYGASNVESGVPARFSGSGSGTDFSLNIHPVEEDDIAMYFCQQSRKVPYTFGGGTKLEIKRTVAAPSVFIFPPSDEQLKSGTASVVCLLNNFYPREAKVQWKVDNALQSGNSQESVTEQDSKDSTYSLSSTLTLSKADYEKHKVYACEVTHQGLSSPVTKSFNRGEC
In the case of B5, the binding result in [9] was “binds”.

B6: VIC16-SDIESA-LS (antibody)
heavy: QVQFQQSGAELAKLGASVKMSCKASGYTFTKYWMHWIKQRPGQGLEWIGYINPSTGYSENNQKFKGKAILTADKSSSTAYMQLSSLTSDDSAVYYCVRGYDSHYYVMDYWGQGTSVTVSSASTKGPSVFPLAPSSKSTSGGTAALGCLVKDYFPEPVTVSWNSGALTSGVHTFPAVLQSSGLYSLSSVVTVPSSSLGTQTYICNVNHKPSNTKVDKKVEPKSCDKTHTCPPCPAPELLGGPDVFLFPPKPKDTLMISRTPEVTCVVVDVSHEDPEVKFNWYVDGVEVHNAKTKPREEQYNATYRVVSVLTVLHQDWLNGKEYKCKVSNKALPAPEEKTISKAKGQPREPQVYTLPPSREEMTKNQVSLTCLVKGFYPSDIAVEWESNGQPENNYKTTPPVLDSDGSFFLYSKLTVDKSRWQQGNVFSCSVLHEALHSHYTQKSLSLSPGK
light: DIVITQDTASLAVSRGQRATISCRASESVEYYGTTLMQWYQQRPGQPPKLLIYGASNVESGVPARFSGSGSGTDFSLNIHPVEEDDIAMYFCQQSRKVPYTFGGGTKLEIKRTVAAPSVFIFPPSDEQLKSGTASVVCLLNNFYPREAKVQWKVDNALQSGNSQESVTEQDSKDSTYSLSSTLTLSKADYEKHKVYACEVTHQGLSSPVTKSFNRGEC
Regarding B6, the binding result in assay [11] and in assay [9] was “binds” in each case.

B7: VIC16-K326W (antibody)
heavy: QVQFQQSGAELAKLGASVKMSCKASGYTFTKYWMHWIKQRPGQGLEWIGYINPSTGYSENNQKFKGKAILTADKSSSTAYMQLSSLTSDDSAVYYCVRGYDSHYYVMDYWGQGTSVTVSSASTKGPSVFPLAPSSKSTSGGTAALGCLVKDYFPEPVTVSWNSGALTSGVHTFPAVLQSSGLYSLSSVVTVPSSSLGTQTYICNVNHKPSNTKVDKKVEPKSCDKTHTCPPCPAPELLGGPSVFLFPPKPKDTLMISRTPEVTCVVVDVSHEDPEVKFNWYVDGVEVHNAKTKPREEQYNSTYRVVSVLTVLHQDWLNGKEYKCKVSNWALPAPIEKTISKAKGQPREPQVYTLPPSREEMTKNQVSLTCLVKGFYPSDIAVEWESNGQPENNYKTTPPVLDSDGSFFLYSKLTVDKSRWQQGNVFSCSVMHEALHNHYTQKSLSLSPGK
light: DIVITQDTASLAVSRGQRATISCRASESVEYYGTTLMQWYQQRPGQPPKLLIYGASNVESGVPARFSGSGSGTDFSLNIHPVEEDDIAMYFCQQSRKVPYTFGGGTKLEIKRTVAAPSVFIFPPSDEQLKSGTASVVCLLNNFYPREAKVQWKVDNALQSGNSQESVTEQDSKDSTYSLSSTLTLSKADYEKHKVYACEVTHQGLSSPVTKSFNRGEC
Take B7: the binding result in assay [9] was “binds”.

B8: VIC16-MLNS (antibody)
heavy: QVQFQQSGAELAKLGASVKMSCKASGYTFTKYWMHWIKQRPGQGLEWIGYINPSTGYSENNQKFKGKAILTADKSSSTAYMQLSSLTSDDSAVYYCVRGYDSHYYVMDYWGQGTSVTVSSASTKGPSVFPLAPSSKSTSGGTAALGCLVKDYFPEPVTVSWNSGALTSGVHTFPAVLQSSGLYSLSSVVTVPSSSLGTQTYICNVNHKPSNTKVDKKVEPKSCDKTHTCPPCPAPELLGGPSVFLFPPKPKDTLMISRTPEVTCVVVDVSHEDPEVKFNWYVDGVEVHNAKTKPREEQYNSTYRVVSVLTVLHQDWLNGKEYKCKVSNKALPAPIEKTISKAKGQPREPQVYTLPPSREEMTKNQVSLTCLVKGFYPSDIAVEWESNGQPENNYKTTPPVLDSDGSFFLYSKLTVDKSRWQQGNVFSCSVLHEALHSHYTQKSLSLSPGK
light: DIVITQDTASLAVSRGQRATISCRASESVEYYGTTLMQWYQQRPGQPPKLLIYGASNVESGVPARFSGSGSGTDFSLNIHPVEEDDIAMYFCQQSRKVPYTFGGGTKLEIKRTVAAPSVFIFPPSDEQLKSGTASVVCLLNNFYPREAKVQWKVDNALQSGNSQESVTEQDSKDSTYSLSSTLTLSKADYEKHKVYACEVTHQGLSSPVTKSFNRGEC
As to B8, the binding result in assay [9] was “binds”.

B9: VIC16-EANA (antibody)
heavy: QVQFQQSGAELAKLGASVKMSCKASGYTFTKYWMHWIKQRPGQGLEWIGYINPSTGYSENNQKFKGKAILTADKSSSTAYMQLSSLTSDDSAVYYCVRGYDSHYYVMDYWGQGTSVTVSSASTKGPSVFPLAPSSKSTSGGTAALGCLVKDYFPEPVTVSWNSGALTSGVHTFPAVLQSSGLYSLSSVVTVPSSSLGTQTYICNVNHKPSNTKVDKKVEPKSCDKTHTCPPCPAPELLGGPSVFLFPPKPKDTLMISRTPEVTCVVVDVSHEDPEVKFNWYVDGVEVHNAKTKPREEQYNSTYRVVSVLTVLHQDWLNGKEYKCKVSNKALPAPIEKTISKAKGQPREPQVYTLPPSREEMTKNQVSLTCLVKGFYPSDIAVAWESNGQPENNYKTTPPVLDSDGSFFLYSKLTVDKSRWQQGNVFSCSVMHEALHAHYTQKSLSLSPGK
light: DIVITQDTASLAVSRGQRATISCRASESVEYYGTTLMQWYQQRPGQPPKLLIYGASNVESGVPARFSGSGSGTDFSLNIHPVEEDDIAMYFCQQSRKVPYTFGGGTKLEIKRTVAAPSVFIFPPSDEQLKSGTASVVCLLNNFYPREAKVQWKVDNALQSGNSQESVTEQDSKDSTYSLSSTLTLSKADYEKHKVYACEVTHQGLSSPVTKSFNRGEC
Consider B9, for which the binding result in assay [10] is listed as “binds”.
